Measured values published in article PMC10319874 (Scientific Reports, 2023).

Biological target: rKgp (Porphyromonas gingivalis) (UniProt Q51817)
Assay: enzyme inhibition assay (chromogenic substrate)

Chain of rKgp (Porphyromonas gingivalis) (Q51817 25-1732): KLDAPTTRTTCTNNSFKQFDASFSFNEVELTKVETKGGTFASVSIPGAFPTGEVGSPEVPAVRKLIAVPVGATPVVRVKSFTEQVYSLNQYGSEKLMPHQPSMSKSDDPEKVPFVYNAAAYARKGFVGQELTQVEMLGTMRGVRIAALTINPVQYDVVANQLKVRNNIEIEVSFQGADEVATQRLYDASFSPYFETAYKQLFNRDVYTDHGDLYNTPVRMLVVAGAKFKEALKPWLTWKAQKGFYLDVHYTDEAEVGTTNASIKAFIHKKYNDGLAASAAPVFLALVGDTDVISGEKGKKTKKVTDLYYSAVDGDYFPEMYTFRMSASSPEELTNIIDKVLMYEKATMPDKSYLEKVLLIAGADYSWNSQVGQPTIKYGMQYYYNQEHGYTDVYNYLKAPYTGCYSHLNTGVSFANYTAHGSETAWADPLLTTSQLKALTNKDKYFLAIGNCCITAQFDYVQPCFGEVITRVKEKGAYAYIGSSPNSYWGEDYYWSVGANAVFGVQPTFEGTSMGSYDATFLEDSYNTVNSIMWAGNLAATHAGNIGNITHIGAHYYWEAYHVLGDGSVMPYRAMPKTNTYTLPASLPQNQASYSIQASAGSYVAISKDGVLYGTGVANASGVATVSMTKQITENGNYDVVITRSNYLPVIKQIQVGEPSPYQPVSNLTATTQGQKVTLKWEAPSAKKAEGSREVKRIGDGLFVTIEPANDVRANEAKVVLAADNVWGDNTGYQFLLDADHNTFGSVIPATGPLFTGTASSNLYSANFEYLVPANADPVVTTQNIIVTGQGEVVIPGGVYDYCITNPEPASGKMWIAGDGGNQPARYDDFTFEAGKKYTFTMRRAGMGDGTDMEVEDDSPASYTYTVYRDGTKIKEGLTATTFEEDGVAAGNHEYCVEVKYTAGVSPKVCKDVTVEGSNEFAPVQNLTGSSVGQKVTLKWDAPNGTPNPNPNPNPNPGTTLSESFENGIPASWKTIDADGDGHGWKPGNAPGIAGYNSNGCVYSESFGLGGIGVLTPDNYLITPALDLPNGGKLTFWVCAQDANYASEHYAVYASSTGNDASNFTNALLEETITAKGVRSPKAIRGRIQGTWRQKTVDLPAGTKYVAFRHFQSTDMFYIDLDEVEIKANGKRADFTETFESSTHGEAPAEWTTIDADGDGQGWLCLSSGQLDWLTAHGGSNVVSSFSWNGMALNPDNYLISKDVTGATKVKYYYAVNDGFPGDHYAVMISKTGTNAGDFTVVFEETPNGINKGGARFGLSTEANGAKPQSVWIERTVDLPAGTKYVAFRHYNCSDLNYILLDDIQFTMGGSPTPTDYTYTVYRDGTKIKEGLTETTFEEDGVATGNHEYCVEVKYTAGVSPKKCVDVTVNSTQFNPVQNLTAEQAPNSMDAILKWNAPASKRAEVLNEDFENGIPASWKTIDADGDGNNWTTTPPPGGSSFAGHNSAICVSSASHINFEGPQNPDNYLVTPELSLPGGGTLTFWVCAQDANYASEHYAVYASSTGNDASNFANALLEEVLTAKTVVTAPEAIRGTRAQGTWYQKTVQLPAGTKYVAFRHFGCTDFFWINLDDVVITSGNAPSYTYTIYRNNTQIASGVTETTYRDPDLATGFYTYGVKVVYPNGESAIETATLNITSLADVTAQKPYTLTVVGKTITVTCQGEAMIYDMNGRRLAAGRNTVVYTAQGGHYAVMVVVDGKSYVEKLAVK

Substance: recombinant Kgp propeptide (rKgp-PP) (from UniProt Q51817) (domain or fragment)
- Ki: 37.5 µM

Substance: recombinant RgpB propeptide (rRgpB-PP) (from UniProt P95493 25-229) (domain or fragment)
- IC50: 11 µM
